Series [1] has as its system acetyl-FLI1-CTD. Nature of the series: EMSA. To be noted: acetylated by CBP HAT; 1 ug protein, 500 fmol probe; Non-radioactive EMSA: 1 ug protein, 500 fmol biotinylated dsDNA, binding buffer per Uren et al. 2004 (not given); 6% gel in 0.5x TBE; protein stock 20 mM ….
Series [2] has as its system FLI1-CTD (C-terminal FLI1 domain, non-acetylated). Nature of the series: EMSA. To be noted: Non-radioactive EMSA: 1 ug protein, 500 fmol biotinylated dsDNA, binding buffer per Uren et al. 2004 (not given); 6% gel in 0.5x TBE; protein stock 20 mM …. In general terms: In EMSA bound probe runs differently from free probe, usually more slowly.

“ets-binding site oligonucleotide (wild type)”: in series [1], the binding signal (fold vs non-acetylated FLI1-CTD) amounted to 4. In series [2], the binding signal (fold (reference, non-acetylated)) was 1.

Source of the values: publication PMC3435532.
